Literature values as cited in article PMC5148012.

Target: GP1bα (glycocalicin) glycocalicin (extracellular part) (Homo sapiens) (UniProt P07359)
UniProt P07359, sequence (P07359 17-506): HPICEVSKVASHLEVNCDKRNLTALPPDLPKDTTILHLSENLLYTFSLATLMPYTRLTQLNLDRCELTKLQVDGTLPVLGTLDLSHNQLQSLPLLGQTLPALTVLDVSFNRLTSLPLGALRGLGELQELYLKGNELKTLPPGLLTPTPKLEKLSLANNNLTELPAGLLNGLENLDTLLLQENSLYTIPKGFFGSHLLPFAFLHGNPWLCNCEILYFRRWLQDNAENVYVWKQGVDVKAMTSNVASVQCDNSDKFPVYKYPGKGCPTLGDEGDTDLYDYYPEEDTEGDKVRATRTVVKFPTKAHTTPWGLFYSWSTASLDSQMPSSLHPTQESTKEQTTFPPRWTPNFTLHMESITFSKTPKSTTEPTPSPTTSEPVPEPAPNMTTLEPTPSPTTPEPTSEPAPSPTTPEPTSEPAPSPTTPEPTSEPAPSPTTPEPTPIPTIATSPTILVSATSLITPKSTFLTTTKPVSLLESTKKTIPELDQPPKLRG

HbA (from UniProt P69905)
Kd: 44.2 µM
